Laboratory results: patent US11708423B2, “Chimeric engulfment receptor molecules and methods of use” (CERO THERAPEUTICS, INC., priority 2017, dated 2023)

How the values were obtained:
human primary B cells = test: Proliferation of CER+ B cells co-cultured with paclitaxel treated Jurkat cells (CELLTRACE Violet dilution); format: cell-based; details: 5 days co-culture with paclitaxel (30 μM) treated Jurkat cells, no exogenous cytokines
Method: The proliferation capacity of CER19+ and CER21+ human primary B cells was evaluated by co-culture with paclitaxel (30 μM) treated Jurkat lymphoma cells. CER-transduced B cells were labeled with CELLTRACE Violet and then co-cultured with paclitaxel treated Jurkat cells a target cell to effector cell ratio of 5:1 at 37° C. in the absence of exogenous cytokines for 5 days. Proliferation of CER19+ or CER21+B cells was assessed by flow cytometry by measuring dilution of CELLTRACE Violet (FIG. 23). Both CER19+ and CER21+ B cells increased approximately 10-fold after 5 days of co-culture in the absence of exogenous cytokines.

[1] = test system: dexamethasone treated thymocytes; test: Phagocytic activity of CER+ Ba/F3 cells against primary apoptotic thymocytes; format: cell-based, C3H mouse; details: for engulfment of dexamethasone-treated thymocytes: target:effector 10:1, 3 hours or overnight, fluorescent microscopy, vs EGFRt control
Method: One day prior to phagocytic assay, primary thymocytes were isolated from a C3H mouse (Charles River Laboratories International, Inc.). Thymocytes were cultured in complete RPMI 1640 growth media supplemented with 10% fetal bovine serum and 1% penicillin-streptomycin in a 6-well plate. To induce apoptosis and phosphatidylserine expression on the cell surface, thymocytes were treated with 1 μM dexamethansone for 24 hours. Untreated thymocytes were used as a negative control. Thymocytes were collected from the 6-well plates, washed once with sterile 1X PBS, and then stained with 1 ng/μ1 pH sensitive pHrodo™ Red dye (ThermoFisher Scientific, Catalog #P36600) in PBS at room temperature for 15 minutes. Labeling target cells with pHrodo Red dye permits visualization of cells that are engulfed and transported into lysosomes due to their increased light emission in the acidic lysosomal environment (Miksa et al., 2009, Immunol. Methods 342:71-7). The cells were then supplemented with growth media and washed one more time to remove any excess pHrodo Red. pHrodo Red stained thymocytes were plated on a flat bottom 96 well plate at 250,000 cells/well in RMPI 1640 complete media. […]
[…] The 96 well plate was then viewed using KEYENCE BZ-X710 fluorescence microscope, 20X objective. […]
A phagocytic index was calculated by multiplying [mean of total number of engulfed target cells/total number of counted CER modified cells (e.g., phagocytic frequency)] by [average area of target cell staining per CER+Ba/F3 cell x 100 (e.g., hybrid capture)] as compared to control EGFRt+Ba/F3 cells (see, FIG. 8). […]
Primary C3H mouse thymocytes were isolated, treated with dexamethasone, and stained with pHrodo Red as described in Example 1. […] Co-culture experiments were carried out at a 10:1 target cell to effector cell ratio, and Ba/F3 CER07^+tEGFR^+ cells were quantified for phagocytosis by fluorescence microscopy and FACs as described in Example 1. […]

[2] = test system: CT26 murine colon carcinoma cells; test: Phagocytic activity of CER+ Ba/F3 cells against murine cell line CT26; format: cell-based; details: target:effector 5:1, 3 hours
Method: One day prior to the phagocytosis assay, CT26 murine colon carcinoma cells were cultured in complete RPMI 1640 growth media supplemented with 10% fetal bovine serum and 1% penicillin-streptomycin in a 6-well plate and treated with 1 mM staurosporine (STS) for 12 hours to induce apoptosis. Untreated CT26 cells were used as a negative control.
On the day of the phagocytosis assay, CT26 cells were collected, washed twice with 1×PBS to remove excess staurosporine and then stained with 1 ng/μ1 pHrodo Red in PBS at room temperature for 15 minutes. […]
Target CT26 cells were co-cultured with stained, CER05^+tEGFR^+ cells at a ratio of 5:1 (target cell:effector cell) for 3 hours at 37° C. […] The 96 well plate was then viewed using KEYENCE BZ-X710 fluorescence microscope, 20X objective. […]
A hybrid capture algorithm that detects fluorescence of pHrodo Red within CELLTRACE Violet staining area was applied to fluorescent images to quantify the area of engulfed target cells/area of CER^+ B cells or control tEGFR+ B cells (see, FIG. 12). […]
A hybrid capture algorithm that detects fluorescence of pHrodo Red within CELLTRACE Violet staining area was applied to fluorescent images to quantify the area of engulfed target cells/area of CER^+ B cells (see, FIG. 17). […]

| Molecule | increase of CER+ B cells (human primary B cells) | engulfment of dexamethasone-treated thymocytes [1] | phagocytosis of staurosporine treated CT26 cells [2] | co-localization of pHrodo red labeled thymocytes with LysoTracker green vesicles ([1]; 6 hours, 50 nM LysoTracker green) |
| --- | --- | --- | --- | --- |
| CER19: Tim4 binding and transmembrane domains, TLR5 signaling domain; SEQ ID NO:86 (protein, CER19 chimeric engulfment receptor) MSKGLLLLWLVTELWWLYLTPAASEDTIIGFLGQPVTLPCHYLSWSQSRNSMCWGKGSCPNSKCNAELLRTDGTRIISRKSTKYTLLGKVQFGEVSLTISNTNRGDSGVYCCRIEVPGWFNDVKKNVRLELRRATTTKKPTTTTRPTTTPYVTTTTPELLPTTVMTTSVLPTTTPPQTLATTAFSTAVTTCPSTTPGSFSQETTKGSAFTTESETLPASNHSQRSMMTISTDIAVLRPTGSNPGILPSTSQLTTQKTTLTTSESLQKTTKSHQINSRQTILIIACCVGFVLMVLLFLAFLTKFRGFCFICYKTAQRLVFKDHPQGTEPDMYKYDAYLCFSSKDFTWVQNALLKHLDTQYSDQNRFNLCFEERDFVPGENRIANIQDAIWNSRKIVCLVSRHFLRDGWCLEAFSYAQGRCLSDLNSALIMVVVGSLSQYQLMKHQSIRGFVQKQQYLRWPEDFQDVGWFLHKLSQQILKKEKEKKKDNNIPLQTVATIS | approximately 10 fold |  |  |  |
| CER07: Tim4 binding domain, TLR4 juxtamembrane spacer, TLR4 transmembrane domain, TLR4 signaling domain; SEQ ID NO:83 (protein, CER07 chimeric engulfment receptor) MSKGLLLLWLVTELWWLYLTPAASEDTIIGFLGQPVTLPCHYLSWSQSRNSMCWGKGSCPNSKCNAELLRTDGTRIISRKSTKYTLLGKVQFGEVSLTISNTNRGDSGVYCCRIEVPGWFNDVKKNVRLELRRATTTKKPTTTTRPTTTPYVTTTTPELLPTTVMTTSVLPTTTPPQTLATTAFSTAVTTCPSTTPGSFSQETTKGSAFTTESETLPASNHSQRSMMTISTDIAVLRPTGSNPGILPSTSQLTTQKTTLTTSESLQKTTKSHQINSRQTPVLSLNITCQMNKTIIGVSVLSVLVVSVVAVLVYKFYFHLMLLAGCIKYGRGENIYDAFVIYSSQDEDWVRNELVKNLEEGVPPFQLCLHYRDFIPGVAIAANIIHEGFHKSRKVIVVVSQHFIQSRWCIFEYEIAQTWQFLSSRAGIIFIVLQKVEKTLLRQQVELYRLLSRNTYLEWEDSVLGRHIFWRRLRKALLDGKSWNPEGTVGTGCNWQEATSI |  | engulfed dexamethasone-treated thymocytes | engulfed staurosporine treated CT26 cells |  |
| CER05: Tim4 binding domain, Tim4 transmembrane domain, TLR4 signaling domain; SEQ ID NO:81 (protein, CER05 chimeric engulfment receptor) MSKGLLLLWLVTELWWLYLTPAASEDTIIGFLGQPVTLPCHYLSWSQSRNSMCWGKGSCPNSKCNAELLRTDGTRIISRKSTKYTLLGKVQFGEVSLTISNTNRGDSGVYCCRIEVPGWFNDVKKNVRLELRRATTTKKPTTTTRPTTTPYVTTTTPELLPTTVMTTSVLPTTTPPQTLATTAFSTAVTTCPSTTPGSFSQETTKGSAFTTESETLPASNHSQRSMMTISTDIAVLRPTGSNPGILPSTSQLTTQKTTLTTSESLQKTTKSHQINSRQTILIIACCVGFVLMVLLFLAFLKFYFHLMLLAGCIKYGRGENIYDAFVIYSSQDEDWVRNELVKNLEEGVPPFQLCLHYRDFIPGVAIAANIIHEGFHKSRKVIVVVSQHFIQSRWCIFEYEIAQTWQFLSSRAGIIFIVLQKVEKTLLRQQVELYRLLSRNTYLEWEDSVLGRHIFWRRLRKALLDGKSWNPEGTVGTGCNWQEATSI |  | engulf dexamethasone-treated thymocytes | in vitro phagocytosis | pHrodo-labeled target cells have been internalized into lysosomes |
